# In patent publication US20210079378A1 (Chugai, published 2021):
# T1: soluble mouse IL-31 receptor (mouse, UniProt Q8K5B1 19-499)
# T1 construct: Soluble form
# T1 sequence (looked up): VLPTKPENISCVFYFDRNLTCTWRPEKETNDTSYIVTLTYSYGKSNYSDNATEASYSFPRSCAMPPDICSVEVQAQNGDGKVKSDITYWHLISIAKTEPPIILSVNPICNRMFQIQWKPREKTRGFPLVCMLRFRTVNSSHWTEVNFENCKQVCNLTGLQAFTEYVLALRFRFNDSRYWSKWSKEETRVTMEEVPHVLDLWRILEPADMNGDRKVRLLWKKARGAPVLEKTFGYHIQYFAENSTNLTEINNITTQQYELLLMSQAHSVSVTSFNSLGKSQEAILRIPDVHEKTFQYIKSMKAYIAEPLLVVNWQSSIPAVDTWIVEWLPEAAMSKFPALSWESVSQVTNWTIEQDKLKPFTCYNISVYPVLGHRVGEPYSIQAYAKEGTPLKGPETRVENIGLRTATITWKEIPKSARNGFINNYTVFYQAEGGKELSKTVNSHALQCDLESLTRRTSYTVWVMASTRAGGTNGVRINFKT
# T2: recombinant soluble human IL-6 receptor (SR344) (human, UniProt P08887 20-344)
# T2 construct: In the membrane-type IL-6 receptor assays the same protein was biotinylated and immobilised on the sensor chip via streptavidin, as stated under assay; also called soluble IL-6 receptor; membrane-type IL-6 receptor (as biotinylated SR344 immobilised on the chip)
# T2 sequence (looked up): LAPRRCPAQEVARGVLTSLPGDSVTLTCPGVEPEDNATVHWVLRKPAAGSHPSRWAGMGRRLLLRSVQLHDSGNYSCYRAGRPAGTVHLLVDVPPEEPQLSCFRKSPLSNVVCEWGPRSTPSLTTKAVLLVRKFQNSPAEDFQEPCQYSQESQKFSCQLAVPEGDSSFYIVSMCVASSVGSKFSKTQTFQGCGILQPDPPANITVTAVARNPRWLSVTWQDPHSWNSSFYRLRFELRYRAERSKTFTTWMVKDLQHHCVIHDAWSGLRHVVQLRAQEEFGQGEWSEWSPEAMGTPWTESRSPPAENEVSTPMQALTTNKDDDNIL
# Legend:
# [1] = molecular target: T1, soluble mouse IL-31 receptor; test: SPR Biacore T100, 25C, pH 5.5; antibody captured on protein A/G chip, soluble mouse IL-31 receptor analyte; pH 5.5
# Protocol: Kinetic analysis of antigen-antibody reactions at pH 5.5 and pH 7.4 was carried out using a Biacore T100™ surface plasmon resonance system (GE Healthcare) for the two types of antibodies prepared as mentioned above: Anti-IL31R wild type and Anti-IL31R clone 1 (buffer: DPBS(−) (pH 7.4 or pH 5.5), 150 mM NaCl, 0.01% TWEEN® 20 (polyoxyethelene sorbitan monolaurate), 0.02% NaN₃). The antibodies were bound to a sensor chip on which recomb-protein A/G (Pierce) was immobilized by amine coupling, and then the soluble mouse IL-31 receptor (prepared according to the method described in WO 2007/142325) adjusted to an appropriate concentration was injected therein as an analyte. All the measurements were carried out at 25° C. Association rate constants kₐ (1/Ms) and dissociation rate constants kd (1/s) were calculated using Biacore T100™ Evaluation Software (GE Healthcare), and dissociation constants KD (M) were calculated based on those values (Table 16). Furthermore, the ratio of affinity at pH 5.5 and pH 7.4 was calculated for each clone to evaluate the pH-dependent binding.
# [2] = molecular target: T2, recombinant soluble human IL-6 receptor …; test: SPR Biacore T100, 37C; antibody captured on protein A/G chip, SR344 analyte; pH 5.8 vs pH 7.4
# Protocol: Kinetic analyses of antigen-antibody reactions at pH 5.8 and pH 7.4 were carried out using a Biacore™ T100 surface plasmon resonance system (GE Healthcare) on the four antibodies: humanized PM1 antibody (WT) and H3pI/L73, CLH5/L73, and H170/L82 produced in Examples 2 and 4 (buffer: 10 mM MES (pH 7.4 or pH 5.8), 150 mM NaCl, and 0.05% TWEEN® 20 (polyoxyethelene sorbitan monolaurate)). Various antibodies were bound onto a sensor chip immobilized with recomb-protein A/G (Pierce) by amine coupling. SR344 adjusted to concentrations of 9.8 to 400 nM was injected to the chip as an analyte. […] All the measurements were carried out at 37° C. Association rate constants kₐ (1/Ms) and dissociation rate constants kd (1/s) were calculated using Biacore T100™ Evaluation Software (GE Healthcare), and dissociation constants KD (M) were calculated on the basis of those values (Table 5). Moreover, the ratio of the affinities at pH 5.8 and pH 7.4 were calculated for each clone to evaluate pH-dependent binding. All the measurements were carried out at 37° C.
binder,measurement,setting,value
"Anti-IL31R wild type (antibody, human IgG1, lambda, V domains shown, Antibody described in WO 2007/142325; also called anti-IL-31 receptor antibody H chain (WT)/L chain (WT)) VH: not shown VL: LPVLTQPPSVSVAPGQTARITCGGNNIGSKTVYWYQQEPGQAPVLVVYDDTDRPAGIPERFSGANSGNTATLTISRVEAGDEADYYCQVWDSSTDHGVFGGGTKLTVLG",kon,[1],51000 M⁻¹ s⁻¹
"H3pI/L73 (antibody, IgG1, V domains shown, Tested as IgG1; also called H3pI/L73-IgG1; H3pl/L73) VH: QVQLQESGPGLVKPSETLSLTCAVSGHSISHDHAHSWVRQPPGEGLEWIGYISYSGITNYNPSLKGRVTISRDTSKNQFSLKLSSVTAADTAAYYCARSLARTTAMDYWGEGTLVTVSS VL: DIQMTQSPSSLSASVGDSVTITCQASQHISSHLNWYQQKPGKAPELLIYYGSHLHSGVPSRFSGSGSGTDFTFTISSLEAEDAATYYCGQGNRLPYTFGQGTKVEIE",affinity ratio between pH 5.8 and pH 7.4,[2],41 fold
"CLH5/L73 (antibody, IgG1, V domains shown, Expressed and purified as IgG) VH: QVQLQESGPGLVKPSETLSLTCAVSGYSISHDHAWSWVRQPPGEGLEWIGHISYSGITNYNPHLKGRVTISRDTSKNQFSLKLSSVTAADTAAYYCARFLARITAHDHWGEGTLVTVSS VL: DIQMTQSPSSLSASVGDSVTITCQASQHISSHLNWYQQKPGKAPELLIYYGSHLHSGVPSRFSGSGSGTDFTFTISSLEAEDAATYYCGQGNRLPYTFGQGTKVEIE",affinity ratio between pH 5.8 and pH 7.4,[2],66 fold
"H170/L82 (antibody, IgG1, V domains shown, Tested as IgG1; also called H170/L82-IgG1) VH: QVQLQESGPGLVKPSETLSLTCAVSGHSISHHHAHSWVRQPPGEGLEWIGYISYSGITHYNPHLKGRVTISRDTSKNQFSLKLSSVTAADTAAYYCARVLARITAMDHWGEGTLVTVSS VL: DIQMTQSPSSLSASVGDSVTITCQASQDISSHLNWYQQKPGKAPELLIYYGSHLHSGVPSRFSGSGSGTDFTFTISSLEAEDAATYYCGQGNRLPYTFGQGTKVEIE",affinity ratio between pH 5.8 and pH 7.4,[2],394 fold
